Target: Jak2 (UniProt O60674)
Assay: phosphorylation enrichment, bacterial display (enrichment ratio); higher = better substrate or ligand; peptides without Tyr show the background
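Also: 11-residue human phosphosite peptides and single-mutation variants displayed on the E. coli surface, counted by deep sequencing, each peptide's frequency after selection divided by its frequency in the unselected input library; frequency after pTyr selection over input frequency; kinase dosed for 20-30% of maximal phosphorylation in three min.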

Sequence of Jak2 (O60674 whole entry, looked up): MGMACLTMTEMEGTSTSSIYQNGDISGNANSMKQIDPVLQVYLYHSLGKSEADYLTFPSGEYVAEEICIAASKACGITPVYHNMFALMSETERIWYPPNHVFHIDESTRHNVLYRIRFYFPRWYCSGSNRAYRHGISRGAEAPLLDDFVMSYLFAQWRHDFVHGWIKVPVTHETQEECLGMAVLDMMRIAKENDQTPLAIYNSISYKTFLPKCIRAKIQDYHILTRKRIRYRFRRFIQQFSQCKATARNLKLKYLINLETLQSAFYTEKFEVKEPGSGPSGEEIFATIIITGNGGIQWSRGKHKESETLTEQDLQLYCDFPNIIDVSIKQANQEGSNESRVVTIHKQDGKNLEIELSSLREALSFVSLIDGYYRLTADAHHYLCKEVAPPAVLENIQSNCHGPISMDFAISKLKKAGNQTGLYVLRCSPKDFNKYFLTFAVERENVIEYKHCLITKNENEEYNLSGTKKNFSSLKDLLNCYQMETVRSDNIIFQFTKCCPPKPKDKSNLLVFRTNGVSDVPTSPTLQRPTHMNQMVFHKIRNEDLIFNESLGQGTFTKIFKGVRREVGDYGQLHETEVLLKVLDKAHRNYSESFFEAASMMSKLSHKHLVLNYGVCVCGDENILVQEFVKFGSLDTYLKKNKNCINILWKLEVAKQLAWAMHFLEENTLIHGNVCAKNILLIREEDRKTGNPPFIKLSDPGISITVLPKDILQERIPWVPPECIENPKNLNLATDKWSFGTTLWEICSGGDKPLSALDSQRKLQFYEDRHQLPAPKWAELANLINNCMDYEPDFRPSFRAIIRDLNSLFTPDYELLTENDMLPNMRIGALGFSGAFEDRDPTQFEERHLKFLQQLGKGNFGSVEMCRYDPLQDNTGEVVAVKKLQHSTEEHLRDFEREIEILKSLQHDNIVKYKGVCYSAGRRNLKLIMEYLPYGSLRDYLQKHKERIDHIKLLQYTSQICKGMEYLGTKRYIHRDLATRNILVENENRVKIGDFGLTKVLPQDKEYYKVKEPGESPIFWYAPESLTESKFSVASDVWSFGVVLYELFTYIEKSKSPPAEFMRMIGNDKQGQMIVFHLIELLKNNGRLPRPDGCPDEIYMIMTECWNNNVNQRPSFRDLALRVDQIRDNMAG

Point of comparison: LAGRFYALKSM [CKB_Y174_YF], phosphorylation enrichment 1.32. Against it:
- QRRLVYYERGA [RYR1_Y245_G248R] — lower, 0.391
- SCRSKYVGLWG [KCNQ1_Y184_G179S] — lower, 0.574
- RFLERYIYNRQ [HLA-DPB1_Y57_E62Q] — lower, 0.796
- GRTPLYMDRQG [AGXT_Y194_G190R] — lower, 0.472
- STEAIYWRYSK [SH3PXD2B_Y42_R43W] — lower, 1.26
- KGEPQYSSHSS [SIPA1L3_Y1265] — lower, 0.57
- IPTPAYQSSPA [PDCD6IP_Y727] — lower, 0.541
- SSMIDYNPLEK [MYOC_Y479] — lower, 1.07
- HCHEGYILHGA [SVEP1_Y2921] — higher, 1.94
- ENGPYYTSYPP [GDAP2_Y488] — lower, 0.703
- PLLTDYSPQLQ [OTC_Y345_S340P] — lower, 0.964
- VDSGVYAVPPP [BCAR1_Y410] — lower, 0.709
- ATPKGYELDAS [OTC_Y223_P225L] — lower, 1
- GHPFAYDWISI [BEST1_Y227_L224P_YF] — lower, 0.774
- GIMEEYQLPYY [BMPR1A_Y453_V450M] — lower, 1.28
- IKSSIYDNRKE [ARAP2_Y380] — lower, 0.586
- GGQSVYHVNLH [HINT1_Y109_H112N] — lower, 0.491
- HEKFLYFLPAS [DYNC2H1_Y346] — higher, 2.82
- TMKSHYMELYD [BBS2_Y644_R643H] — lower, 0.864
- PGPPGYCDSSQ [COL12A1_Y3043] — lower, 1.08
- VLTSKYPGGGG [HBA1_Y141_R142P] — lower, 0.441
- TQKLAYMELQQ [CENPF_Y700] — lower, 0.794
- FGMSTYITRED [FNDC3B_Y180_YF] — lower, 0.95
- DSFWSYCNAVA [SLC20A2_Y436_S434W_YF] — lower, 1.19
- MGSYNYLGFAW [SPTLC2_Y178_R183W] — higher, 3.68
- KAIMTYVSSFF [ACTN4_Y260_YF] — lower, 0.561
- GMRHGYGVRQS [JPH2_Y141] — lower, 0.457
- PFWKLYESVKK [MKI67_Y241] — higher, 1.58
- ENAGFYFQVSA — lower, 1.3
- NPQKPYFIRLY [WAS_Y83_S82P] — lower, 0.906
- DVLEFYNSKKT [PAK1_Y131] — lower, 1.11
- GIKAAYEAERG [LMNA_Y81_L85R] — lower, 0.517

Tested on: c-Src
Assay: as above

Point of comparison: FGMSTYITRED [FNDC3B_Y180_YF], phosphorylation enrichment 0.692. Against it:
- QRRLVYYERGA [RYR1_Y245_G248R] — lower, 0.426
- SCRSKYVGLWG [KCNQ1_Y184_G179S] — lower, 0.509
- RFLERYIYNRQ [HLA-DPB1_Y57_E62Q] — higher, 0.768
- GRTPLYMDRQG [AGXT_Y194_G190R] — lower, 0.528
- STEAIYWRYSK [SH3PXD2B_Y42_R43W] — higher, 3.47
- KGEPQYSSHSS [SIPA1L3_Y1265] — lower, 0.496
- IPTPAYQSSPA [PDCD6IP_Y727] — lower, 0.369
- SSMIDYNPLEK [MYOC_Y479] — lower, 0.689
- HCHEGYILHGA [SVEP1_Y2921] — higher, 1.12
- ENGPYYTSYPP [GDAP2_Y488] — higher, 3.52
- PLLTDYSPQLQ [OTC_Y345_S340P] — lower, 0.616
- VDSGVYAVPPP [BCAR1_Y410] — higher, 4.94
- ATPKGYELDAS [OTC_Y223_P225L] — lower, 0.405
- GHPFAYDWISI [BEST1_Y227_L224P_YF] — lower, 0.629
- GIMEEYQLPYY [BMPR1A_Y453_V450M] — higher, 3.76
- IKSSIYDNRKE [ARAP2_Y380] — lower, 0.58
- GGQSVYHVNLH [HINT1_Y109_H112N] — higher, 1.03
- HEKFLYFLPAS [DYNC2H1_Y346] — higher, 1.08
- TMKSHYMELYD [BBS2_Y644_R643H] — higher, 1.2
- PGPPGYCDSSQ [COL12A1_Y3043] — lower, 0.594
- VLTSKYPGGGG [HBA1_Y141_R142P] — lower, 0.276
- TQKLAYMELQQ [CENPF_Y700] — lower, 0.509
- DSFWSYCNAVA [SLC20A2_Y436_S434W_YF] — lower, 0.443
- MGSYNYLGFAW [SPTLC2_Y178_R183W] — higher, 1.04
- KAIMTYVSSFF [ACTN4_Y260_YF] — lower, 0.592
- GMRHGYGVRQS [JPH2_Y141] — lower, 0.326
- PFWKLYESVKK [MKI67_Y241] — higher, 1.58
- LAGRFYALKSM [CKB_Y174_YF] — lower, 0.461
- ENAGFYFQVSA — lower, 0.347
- NPQKPYFIRLY [WAS_Y83_S82P] — lower, 0.303
- DVLEFYNSKKT [PAK1_Y131] — lower, 0.504
- GIKAAYEAERG [LMNA_Y81_L85R] — lower, 0.344

Target: EPHB2 (UniProt P29323)
Assay: as above

Sequence of EPHB2 (P29323 whole entry, looked up): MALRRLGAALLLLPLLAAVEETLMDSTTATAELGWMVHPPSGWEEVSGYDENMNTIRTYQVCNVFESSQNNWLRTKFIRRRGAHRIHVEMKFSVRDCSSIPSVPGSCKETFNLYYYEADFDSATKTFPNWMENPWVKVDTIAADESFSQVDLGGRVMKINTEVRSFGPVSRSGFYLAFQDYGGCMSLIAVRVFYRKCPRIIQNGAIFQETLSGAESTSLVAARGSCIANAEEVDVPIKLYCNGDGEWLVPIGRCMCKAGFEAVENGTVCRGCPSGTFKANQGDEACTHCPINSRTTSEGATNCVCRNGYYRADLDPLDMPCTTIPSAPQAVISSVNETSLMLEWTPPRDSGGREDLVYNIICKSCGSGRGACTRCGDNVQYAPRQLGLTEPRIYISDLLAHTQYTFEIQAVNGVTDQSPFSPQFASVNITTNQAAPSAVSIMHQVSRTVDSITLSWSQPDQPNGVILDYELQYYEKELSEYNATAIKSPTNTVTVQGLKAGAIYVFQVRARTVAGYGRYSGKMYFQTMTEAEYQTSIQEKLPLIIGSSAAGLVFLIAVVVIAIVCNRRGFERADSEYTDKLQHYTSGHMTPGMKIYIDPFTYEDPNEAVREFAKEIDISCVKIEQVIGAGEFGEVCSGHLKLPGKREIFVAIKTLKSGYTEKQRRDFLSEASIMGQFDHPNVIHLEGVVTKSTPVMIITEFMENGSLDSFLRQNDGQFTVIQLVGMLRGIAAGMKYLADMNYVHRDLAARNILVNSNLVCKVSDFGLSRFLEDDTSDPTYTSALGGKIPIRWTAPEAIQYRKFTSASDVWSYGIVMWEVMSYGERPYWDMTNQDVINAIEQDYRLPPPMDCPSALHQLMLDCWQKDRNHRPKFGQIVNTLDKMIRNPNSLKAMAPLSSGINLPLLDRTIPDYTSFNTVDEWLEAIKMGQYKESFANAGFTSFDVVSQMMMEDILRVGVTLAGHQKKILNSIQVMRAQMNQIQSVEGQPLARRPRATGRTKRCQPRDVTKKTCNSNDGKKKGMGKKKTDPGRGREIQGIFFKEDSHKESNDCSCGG

Point of comparison: ENGPYYTSYPP [GDAP2_Y488], phosphorylation enrichment 1. Against it:
- QRRLVYYERGA [RYR1_Y245_G248R] — lower, 0.345
- SCRSKYVGLWG [KCNQ1_Y184_G179S] — lower, 0.497
- RFLERYIYNRQ [HLA-DPB1_Y57_E62Q] — lower, 0.907
- GRTPLYMDRQG [AGXT_Y194_G190R] — lower, 0.443
- STEAIYWRYSK [SH3PXD2B_Y42_R43W] — higher, 1.39
- KGEPQYSSHSS [SIPA1L3_Y1265] — lower, 0.317
- IPTPAYQSSPA [PDCD6IP_Y727] — lower, 0.364
- SSMIDYNPLEK [MYOC_Y479] — lower, 0.533
- HCHEGYILHGA [SVEP1_Y2921] — lower, 0.746
- PLLTDYSPQLQ [OTC_Y345_S340P] — higher, 1.17
- VDSGVYAVPPP [BCAR1_Y410] — higher, 19.6
- ATPKGYELDAS [OTC_Y223_P225L] — lower, 0.551
- GHPFAYDWISI [BEST1_Y227_L224P_YF] — lower, 0.721
- GIMEEYQLPYY [BMPR1A_Y453_V450M] — lower, 0.795
- IKSSIYDNRKE [ARAP2_Y380] — lower, 0.321
- GGQSVYHVNLH [HINT1_Y109_H112N] — lower, 0.364
- HEKFLYFLPAS [DYNC2H1_Y346] — higher, 1.3
- TMKSHYMELYD [BBS2_Y644_R643H] — lower, 0.683
- PGPPGYCDSSQ [COL12A1_Y3043] — lower, 0.492
- VLTSKYPGGGG [HBA1_Y141_R142P] — lower, 0.374
- TQKLAYMELQQ [CENPF_Y700] — lower, 0.454
- FGMSTYITRED [FNDC3B_Y180_YF] — lower, 0.45
- DSFWSYCNAVA [SLC20A2_Y436_S434W_YF] — lower, 0.67
- MGSYNYLGFAW [SPTLC2_Y178_R183W] — higher, 1.88
- KAIMTYVSSFF [ACTN4_Y260_YF] — lower, 0.602
- GMRHGYGVRQS [JPH2_Y141] — lower, 0.373
- PFWKLYESVKK [MKI67_Y241] — higher, 2.31
- LAGRFYALKSM [CKB_Y174_YF] — lower, 0.573
- ENAGFYFQVSA — lower, 0.493
- NPQKPYFIRLY [WAS_Y83_S82P] — lower, 0.599
- DVLEFYNSKKT [PAK1_Y131] — lower, 0.544
- GIKAAYEAERG [LMNA_Y81_L85R] — lower, 0.363

Target: FGFR1 (UniProt P11362)
Assay: as above

Sequence of FGFR1 (P11362 whole entry, looked up): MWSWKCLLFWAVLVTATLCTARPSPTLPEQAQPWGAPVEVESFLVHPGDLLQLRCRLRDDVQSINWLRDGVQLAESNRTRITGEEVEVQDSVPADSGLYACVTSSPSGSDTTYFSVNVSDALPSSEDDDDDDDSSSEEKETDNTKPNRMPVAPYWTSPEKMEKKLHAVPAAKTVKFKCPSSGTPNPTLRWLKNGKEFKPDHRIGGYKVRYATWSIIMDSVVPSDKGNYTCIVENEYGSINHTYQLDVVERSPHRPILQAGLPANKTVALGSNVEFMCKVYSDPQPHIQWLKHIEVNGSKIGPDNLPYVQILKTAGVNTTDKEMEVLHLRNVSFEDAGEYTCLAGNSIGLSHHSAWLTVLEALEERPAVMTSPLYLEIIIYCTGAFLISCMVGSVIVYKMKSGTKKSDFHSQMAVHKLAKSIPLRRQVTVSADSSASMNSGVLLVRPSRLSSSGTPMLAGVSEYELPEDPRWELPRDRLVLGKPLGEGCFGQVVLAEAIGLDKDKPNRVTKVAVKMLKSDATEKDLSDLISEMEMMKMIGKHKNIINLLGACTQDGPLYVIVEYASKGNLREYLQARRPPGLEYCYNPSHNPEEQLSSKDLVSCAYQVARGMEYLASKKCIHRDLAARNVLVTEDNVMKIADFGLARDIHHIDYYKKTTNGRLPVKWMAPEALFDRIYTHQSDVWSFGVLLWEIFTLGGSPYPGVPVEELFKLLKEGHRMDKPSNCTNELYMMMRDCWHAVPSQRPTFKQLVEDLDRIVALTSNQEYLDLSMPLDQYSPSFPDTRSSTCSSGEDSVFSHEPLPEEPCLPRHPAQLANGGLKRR

Point of comparison: PGPPGYCDSSQ [COL12A1_Y3043], phosphorylation enrichment 0.461. Against it:
- QRRLVYYERGA [RYR1_Y245_G248R] — higher, 0.499
- SCRSKYVGLWG [KCNQ1_Y184_G179S] — lower, 0.364
- RFLERYIYNRQ [HLA-DPB1_Y57_E62Q] — higher, 0.854
- GRTPLYMDRQG [AGXT_Y194_G190R] — lower, 0.396
- STEAIYWRYSK [SH3PXD2B_Y42_R43W] — higher, 1.54
- KGEPQYSSHSS [SIPA1L3_Y1265] — lower, 0.298
- IPTPAYQSSPA [PDCD6IP_Y727] — lower, 0.377
- SSMIDYNPLEK [MYOC_Y479] — higher, 0.475
- HCHEGYILHGA [SVEP1_Y2921] — higher, 0.722
- ENGPYYTSYPP [GDAP2_Y488] — higher, 2.7
- PLLTDYSPQLQ [OTC_Y345_S340P] — higher, 1.19
- VDSGVYAVPPP [BCAR1_Y410] — higher, 1.2
- ATPKGYELDAS [OTC_Y223_P225L] — higher, 0.466
- GHPFAYDWISI [BEST1_Y227_L224P_YF] — higher, 2.03
- GIMEEYQLPYY [BMPR1A_Y453_V450M] — higher, 2.23
- IKSSIYDNRKE [ARAP2_Y380] — higher, 0.538
- GGQSVYHVNLH [HINT1_Y109_H112N] — lower, 0.429
- HEKFLYFLPAS [DYNC2H1_Y346] — higher, 1.08
- TMKSHYMELYD [BBS2_Y644_R643H] — higher, 0.568
- VLTSKYPGGGG [HBA1_Y141_R142P] — lower, 0.28
- TQKLAYMELQQ [CENPF_Y700] — higher, 0.596
- FGMSTYITRED [FNDC3B_Y180_YF] — higher, 0.581
- DSFWSYCNAVA [SLC20A2_Y436_S434W_YF] — higher, 0.65
- MGSYNYLGFAW [SPTLC2_Y178_R183W] — higher, 2.96
- KAIMTYVSSFF [ACTN4_Y260_YF] — higher, 0.533
- GMRHGYGVRQS [JPH2_Y141] — lower, 0.355
- PFWKLYESVKK [MKI67_Y241] — higher, 0.52
- LAGRFYALKSM [CKB_Y174_YF] — higher, 0.479
- ENAGFYFQVSA — lower, 0.416
- NPQKPYFIRLY [WAS_Y83_S82P] — lower, 0.395
- DVLEFYNSKKT [PAK1_Y131] — higher, 0.856
- GIKAAYEAERG [LMNA_Y81_L85R] — lower, 0.403
